From article PMC10703879

What was measured:
[1] = target: BCMAECD-Fc (dimerized, Fc-tagged human BCMA extracellular domain) (human) (UniProt Q02223); test: SPR; heterogeneous ligand, first site (KD1); conditions: VHH
[2] = target: BCMAECD-Fc (dimerized, Fc-tagged human BCMA extracellular domain) (human) (UniProt Q02223); test: SPR; heterogeneous ligand, second site (KD2); conditions: VHH
[3] = target: BCMAECD-His (monomeric, His-tagged human BCMA extracellular domain) (human) (UniProt Q02223); test: SPR; heterogeneous ligand, second site (KD2); conditions: VHH
[4] = target: BCMAECD-Fc (dimerized, Fc-tagged human BCMA extracellular domain) (human) (UniProt Q02223); test: SPR; heterogeneous ligand, second site (kd2); conditions: VHH
[5] = target: BCMAECD-His (monomeric, His-tagged human BCMA extracellular domain) (human) (UniProt Q02223); test: SPR; heterogeneous ligand, second site (kd2); conditions: VHH
[6] = target: BCMAECD-Fc (dimerized, Fc-tagged human BCMA extracellular domain) (human) (UniProt Q02223); test: SPR; heterogeneous ligand, first site (kd1); conditions: VHH
[7] = target: BCMAECD-His (monomeric, His-tagged human BCMA extracellular domain) (human) (UniProt Q02223); test: SPR; heterogeneous ligand, first site (kd1); conditions: VHH
[8] = target: BCMAECD-His (monomeric, His-tagged human BCMA extracellular domain) (human) (UniProt Q02223); test: SPR; Biacore 8K, 25 °C, 10 mM HEPES pH 7.4, 150 mM NaCl, 0.05% Tween 20; BCMAECD-His immobilised by amine coupling on CM5; nanobodies as analytes (five two-fold dilutions); Langmuir model for Nb1 and Nb2, heterogeneous ligand model for NbT
[9] = target: BCMAECD-Fc (dimerized, Fc-tagged human BCMA extracellular domain) (human) (UniProt Q02223); test: SPR; Biacore 8K, 25 °C, 10 mM HEPES pH 7.4, 150 mM NaCl, 0.05% Tween 20; BCMAECD-Fc immobilised by amine coupling on CM5; nanobodies as analytes (five two-fold dilutions); Langmuir model for Nb1 and Nb2, heterogeneous ligand model for NbT
[10] = target: BCMAECD (synthesized extracellular domain of human B-cell maturation antigen, residues 1-54) (human) (UniProt Q02223); test: AUC; sedimentation velocity; complexes formed by mixing nanobody with excess BCMAECD (molar ratio 1:4, overnight at 4 °C); 1 mg/ml, 45,000 rpm, 20 mM Tris pH 8.0, 100 mM NaCl, 4 °C
BCMAECD (synthesized extracellular domain of human B-cell maturation antigen, residues 1-54) (human), sequence (Q02223 1-54): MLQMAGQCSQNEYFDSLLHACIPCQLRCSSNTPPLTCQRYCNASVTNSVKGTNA

BCMAECD-Fc (dimerized, Fc-tagged human BCMA extracellular domain) (human), sequence (Q02223 1-54): as above
BCMAECD-His (monomeric, His-tagged human BCMA extracellular domain) (human), sequence (Q02223 1-54): as above

Kd [1] [nM]	Kd [2] [nM]	Kd [3] [nM]	koff [4] [s⁻¹]	koff [5] [s⁻¹]	koff [6] [s⁻¹]	koff [7] [s⁻¹]	KD of the stronger site (heterogeneous ligand model) [8] [nM]	KD of the higher-affinity site (heterogeneous ligand model) [9] [nM]	stoichiometry N (NbT per BCMAECD (printed 2 to 4)) [10]	Substance
0.00361	3.54	4.27	0.0133	0.0191	3.28e-05	0.000118	–	–	–	NbT (cilta-cel nanobody tandem, Nb1 and Nb2 in tandem)
–	–	–	–	–	–	–	0.011	0.0036	0.5	NbT (cilta-cel nanobody tandem, Nb1 and Nb2 in tandem) (VHH)
